The record followed here is patent publication US20040120954A1, “Regulation of mt1-mmp activity” (priority 2000, published 2004).

Experiment [1] addresses FLAG epitope-tagged MT1-MMP (MT1-F) (human) (UniProt P50281). In words: binding of 25 nM 125I-labeled TIMP-2 to transfected CHO-K1 cells at 0 C, with and without BB-94.
The target of experiment [2] is MT1-F/NGFR (chimera of the ectodomain of MT1-F with the transmembrane/cytoplasmic domain of NGFR) (human) (UniProt P50281). In words: competition with the dimer formation of MT1-F/NGFR in co-transfected COS1 cells, PY20 Western blot (FIG. 10). On the technique in general: In western blotting, separated proteins are transferred to a membrane and probed.
For experiment [3], the target named is Membrane-type 1 matrix metalloproteinase (MT1-MMP) (human) (UniProt P50281).
For experiment [4], the target named is MT1-F/NGFR (chimera of the ectodomain of MT1-F with the transmembrane/cytoplasmic domain of NGFR) (human) (UniProt P50281). In words: COS1 cells co-transfected with MT1-F/NGFR, Rac1DA and MT1PEX-F, PY20 Western blot (FIG. 24).

Some results are limits rather than exact numbers.

For “Recombinant human TIMP-2 (tissue inhibitor of metalloproteinase-2) (from UniProt P16035)”, in experiment [1], the decrease in TIMP-2 binding on the cell surface on co-transfection of MT1PEX-F, against MT1-F alone was found to be 37%.

Turning to “Catalytic domain-deleted FLAG-tagged MT1-MMP (MT1PEX-F) (from UniProt P50281)”, the inhibition of the phosphorylation of MT1-F/NGFR in experiment [2] was above 90%. Besides, the Matrigel invasion by HT1080 cells (GFP-positive invading cells) in experiment [3] amounted to 70%. In experiment [4], this substance had a decrease of the phosphotyrosine signal of MT1-F/NGFR of 43%.
